Laboratory results from the DeepSol protein solubility set.

Assay: soluble on expression in E. coli; label from the status in PepcDB or PDB records

Sequence | soluble on expression in E. coli
MKLPVMSPEHSAQLQAFEAKILSNHAKIEAWFRTQWSVHRPPFYGSVDIRNAGYKISSIDMNLFPGGFNNLNPNFIPLAAVAAQDAVQRACETAKSVLIIPENHTRNTFYLQNVYALGEILRSAGYEVRLGSLNPEVTEPTEFETALGDKILLEPLLRTRDRVHLADGFSPCVVLLNNDLSAGIPDILKGISQTVLPPLHGGWTTRRKTNHFGAYNQVTAEFAKLIGIDEWQINPYFEKIGGLDFQGREGEDALAEAVERVLAKIQAKYDESGITDKPFVIVKADAGTYGMGVMSVKSADEVRGLNRKNRNKMAKVKEGLEVSEVIVQEGIYTYETLNGAVCEPVVYMMDRFVIGGFFRVHEGRGADENLNAGGMVFVPLSNSIPTGNGDNSQEAPEACKRVFEQWDSLGMPRSEKDCDVDNEHNRLYVYGVMARLSLLAASIELEETA | soluble
MKLRRSMLFVPGSNAAMLSNSFIYKPDSIMFDLEDAVALKEKDSARLLVAHALQHPLYKEIETVVRVNPLDSEFGLLDLNSVVRAGVDVVRMPKTESAQDVLDMDHAITEIEKACGREAGSTKMLAAIESPLGITQANQIAFASKRLIGIALGAEDYVRNLKTERSPEGIELLFARCSILQAARAAGIQAFDTVYSNANNEEGFLKEAALIKQLGFDGKSLINPRQIELLHNLFAPTQKDVEQAKRIIEAAVEAERQGAGVVSLNGKMIDAPIIDRAKLVLERAKSGIREELEHHHHHH | soluble
MKLSDMQLFRGLEEDDISSLLSCLNSVKRNYKKGEVILSEGSIIENIGIVLSGMAMISCNEIWGNTSILGSVAPGSVFAEVYACIPGQPMLVTVSAVEDTSVLFMNVGRVLTTCTNACPFHTNLARNLLTVCAHKSLQLSQRILHTSSKSIRGRLMSYFSECAKHAGSNSFLIPYNRQQLADYLNVDRSTMCNELSKMQKDGMIEYKKNRILLKD | not soluble
MKLSVYVASAFSKDHKGGNKAGVVFIENSLTTTQKMAIAKQLGYAETAFISESEIADYKFEYFTPKEEVDLCGHATIGSFAILMHLNKLFRNRYTIETNSGVLTITIKDDSIFMEQNNPIFYDVVSPNEFIDCFDMKAIDNKYPIQIVSTGLKDILIPIKSETRLHALQPSFEKIKEISKYYNVVGMHLYTFNDDRIICRNFAPLYDINEEAATGTSNGALACYLHEQHNLQKEVYVFEQGYSLQSPSEILVTLATNSKNEIEKVYVGGKGYYCETKCLNVENME | not soluble
MKLVLAVIQDADAAALMRALSEQHFEATKLASTGGFLREGNTTLMIGVDDQRLDTLRTLIGQTCRSRTRLVPARGLVSESEGGVAQEPVEVPVGGAVIFVLGVEDFVKV | not soluble
MKLYNLKDHNEQVSFAQAVTQGLGKQQGLFFPHDLPEFSLTEIDEMLNQDFVSRSAKILSAFIGDEIPQQILEERVRAAFAFPAPVAQVESDVGCLELFHGPTLAFKDFGGRFMAQMLTHISGDKPVTILTATSGDTGAAVAHAFYGLENVRVVILYPRGKISPLQEKLFCTLGGNIETVAIDGDFDACQALVKQAFDDEELKTALGLNSANSINISRLLAQICYYFEAVAQLPQGARNQLVISVPSGNFGDLTAGLLAKSLGLPVKRFIAATNVNDTVPRFLHDGKWAPKATQATLSNAMDVSQPNNWPRVEELFRRKIWRLTELGYAAVDDTTTQQTMRELKAKGYISEPHAAVAYRALRDQLNPGEYGLFLGTAHPAKFKESVESILGETLALPEALAERADLPLLSHHLPADFAALRKLMMTRQ | not soluble
MKLYQHIETLWDYMQLKQDLKPADCLFVMCSNDVRVAEHAAALYHQKLAPLIVFSGGEGRFTDGLFEKSEAETFADIARLAGVPSDAILVETRSTNSGENVRFTEQLLKEKGIQCESIILVQKPFMERRAIATFEKQWQSPYSQVQVSSTAHPFFEYINEDMPLMMVLEALMEDFSRVKSYPEKGFQTKQDIPNQVDSSYQVLLERFGFDLVLEHHHHHH | not soluble
MKMKEFLDLLNESRLTVTLTGAGISTPSGIPDFRGPNGIYKKYSQNVFDIDFFYSHPEEFYRFAKEGIFPMLQAKPNLAHVLLAKLEEKGLIEAVITQNIDRLHQRAGSKKVIELHGNVEEYYCVRCEKKYTVEDVIKKLESSDVPLCDDCNSLIRPNIVFFGENLPQDALREAIGLSSRASLMIVLGSSLVVYPAAELPLITVRSGGKLVIVNLGETPFDDIATLKYNMDVVEFARRVMEEGGIS | soluble
MKMNLSTPFPLGATLDAEGCNFAIYAPANRDILLALFHADGSYETHQLEHEYAGVKHTHISGIHAGQKYGYLIQLNDELHYISDPYARALEGPLHYAPPFDSHKSFDLPKCVVTDTHFDWQNVAKPRIARDEMVLFETHVKGLTQLNPDVEKALRGKYLGLVSQPMLDFYRQQNINTLQLLPIAACMHEPHLLESGKVNYWGYNPYVFMAPDPRYASKDAVNELKTTIRELHRNGIQVILDVVYNHTAEGGTNGPVFNLKALDPNYYLHHGDHYANYTGCGNTVDLSNQAALNLVMDTLRCWVTEYQIDGFRFDLAATLGRRGDEFSKEAAFFKAVAQDPVLREVKLIAEPWDIGPNGYQVGNFPFGWNETNDKLRDITRSFWRGDLGFLKEFATRLMGSRDLYSAANWPYKLTVNYITYHDGFTLQDLVSYKHKHNEANGEQNRDGHGDNRSDNYGFEGDTDSIVIRATRERQKRNFMASLLFAFGIPHILTADVLSHTQKGNNNAYCQDNDISWLNWENNETKQDFREWLAGMVAARQTYMVPFIRAFSGENRNNNRIAWRRVDGKPMEMDDWNRLSSVALHIGIGSDGPEMLYLINQTNAPARFVLPKDRQQDWRLICDTNMRHAQHGHAEGEVLQLPVSMSILHYQPKKKSA | soluble
MKNIRNFSIIAHIDHGKSTLSDRIIQICGGLSDREMEAQVLDSMDLERERGITIKAQSVTLDYKASDGETYQLNFIDTPGHVDFSYEVSRSLAACEGALLVVDAGQGVEAQTLANCYTAMEMDLEVVPVLNKIDLPAADPERVAEEIEDIVGIDATDAVRCSAKTGVGVQDVLERLVRDIPPPEGDPEGPLQALIIDSWFDNYLGVVSLIRIKNGTLRKGDKVKVMSTGQTYNADRLGIFTPKQVDRTELKCGEVGWLVCAIKDIHGAPVGDTLTLARNPAEKALPGFKKVKPQVYAGLFPVSSDDYEAFRDALGKLSLNDASLFYEPESSSALGFGFRCGFLGLLHMEIIQERLEREYDLDLITTAPTVVYEVETTSREVIYVDSPSKLPAVNNIYELREPIAECHMLLPQAYLGNVITLCVEKRGVQTNMVYHGNQVALTYEIPMAEVVLDFFDRLKSTSRGYASLDYNFKRFQASDMVRVDVLINGERVDALALITHRDNSQNRGRELVEKMKDLIPRQQFDIAIQAAIGTHIIARSTVKQLRKNVLAKCYGGDISRKKKLLQKQKEGKKRMKQIGNVELPQEAFLAILHVGKDNK | soluble
MKNKLLVLSLGALCVSQIWESNRASAVVSGEKNPYVSESLKLTNNKNKSRTVEEYKKSLDDLIWSFPNLDNERFDNPEYKEAMKKYQQRFMAEDEALKKFFSEEKKIKNGNTDNLDYLGLSHERYESVFNTLKKQSEEFLKEIEDIKKDNPELKDFNEEEQLKCDLELNKLENQILMLGKTFYQNYRDDVESLYSKLDLIMGYKDEERANKKAVNKRMLENKKEDLETIIDEFFSDIDKTRPNNIPVLEDEKQEEKNHKNMAQLKSDTEAAKSDESKRSKRSKRSLNTQNHKPASQEVSEQQKAEYDKRAEERKARFLDNQKIKKTPVVSLEYDFEHKQRIDNENDKKLVVSAPTKKPTSPTTYTETTTQVPMPTVERQTQQQIIYNAPKQLAGLNGESHDFTTTHQSPTTSNHTHNNVVEFEETSALPGRKSGSLVGISQIDSSHLTEREKRVIKREHVREAQKLVDNYKDTHSYKDRINAQQKVNTLSEGHQKRFNKQINKVYNGK | not soluble
MKNSDLYNGTLRTSFVPGSTLEAGIIFRATIPNGEFYEKEAGLSYYWLYILNGTVSFQRVENGEISNENKKYFPYGTSSAYEAKILLDDGDIYCYLNNRLVFHYTDENPLQGHQYGLKSEGSNLIVTEFATSSLEAPQHNEYLIFGHSYTDFWKTYKQDFHKYQDIYNIGIGGAITSDWCSEGYQKEVIAYQPKYGIYWNGINDINRNIAPKTIGDNVRRMAMEIKAAVPGFHLVLIGVCRCPIDSGRRSDIASTNNYYKQIASDLDYVTYIDTELMYCDSNGNEIANYFTDGLHPTHDAYIMCANAIMNTIK | soluble
MKPEKIDCNFKLIYCEDEESKGGRLEFSLEEVLAISRNVYKRVRTNRKHHHHHH | soluble
